Target: interleukin-6 (IL-6) (UniProt P05231 30-212)
Experiment: electrochemical aptasensor (DPV, [Fe(CN)6]3-/4- vs poly-methylene blue); aptamer immobilised on CS/MWCNT/pMB electrode, BSA blocked; 30 min incubation; linear 0.001-1000 ng/mL, LOD 0.54 pg/mL (not a Kd); 1 uM aptamer for immobilisation, IL-6 incubated 30 min with stirring; binding buffer, salt, pH and temperature not given in the material
Conditions: protein: commercial; hairpin (stated)

Chain of interleukin-6 (IL-6) (P05231 30-212): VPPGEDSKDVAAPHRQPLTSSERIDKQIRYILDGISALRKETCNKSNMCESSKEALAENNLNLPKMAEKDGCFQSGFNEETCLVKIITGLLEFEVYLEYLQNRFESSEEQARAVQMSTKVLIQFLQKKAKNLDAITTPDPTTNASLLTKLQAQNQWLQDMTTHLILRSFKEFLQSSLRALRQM

B1: IL-6 aptamer (NH2-Apt) (ssDNA)
DNA: GGTGGCAGGAGGACTATTTATTTGCTTTTCT
modifications: 3'-NH2
binding result: binds

— article PMC11506342, “Ratiometric Electrochemical Detection of Interleukin-6 Using Electropolymerized Methylene Blue and a Multi-Walled Carbon-Nanotube-Modified Screen-Printed Carbon Electrode”
